For assay [1], the target named is purified recombinant A3G-His6 (human APOBEC3G with C-terminal Myc-His6 tag, expressed in 293T cells) (human) (UniProt Q9HC16). Put plainly: cell-based or functional assay.
Assay [2] has as its target virion-associated A3G (endogenous A3G of H9 cells packaged in HIV-1 particles) (human) (UniProt Q9HC16). Put plainly: cell-based or functional assay.

Sequence of purified recombinant A3G-His6 (human APOBEC3G with C-terminal Myc-His6 tag, expressed in 293T cells) (human) (Q9HC16 whole entry): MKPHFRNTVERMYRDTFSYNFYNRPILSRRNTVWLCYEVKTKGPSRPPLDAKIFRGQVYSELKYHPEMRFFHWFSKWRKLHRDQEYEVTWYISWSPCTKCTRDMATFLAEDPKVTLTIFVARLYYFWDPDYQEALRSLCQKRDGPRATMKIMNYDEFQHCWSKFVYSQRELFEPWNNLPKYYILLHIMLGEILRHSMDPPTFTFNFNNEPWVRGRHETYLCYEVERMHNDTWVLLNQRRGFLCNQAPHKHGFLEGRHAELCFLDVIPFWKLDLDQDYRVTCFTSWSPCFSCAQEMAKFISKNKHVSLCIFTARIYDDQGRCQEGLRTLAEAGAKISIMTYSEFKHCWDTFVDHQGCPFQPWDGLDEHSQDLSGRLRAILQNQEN

On to BSA (from UniProt P02769 25-607), for which the A3G deaminase activity in assay [1] turned out to be 10 µM.

Consider Vif9-23 peptide, for which the inhibition of A3G deaminase activity in assay [1] is 1 µM.

For the substance Vif37-51 peptide, the inhibition of A3G deaminase activity in assay [1] came to 1 µM.

Turning to Vif101-115 peptide, the inhibition of A3G deaminase activity in assay [1] came out at 1 µM.

Vif113-127 peptide: in assay [1], the inhibition of A3G deaminase activity stood at 1 µM.

In assay [2], “Vif molecules associated with HIV-1 particles (wt HIV-1 HXB2 virions) (from UniProt P05900 1-192)” returned a specific activity of virion-associated A3G deaminase (wt vs Δvif particles, normalized to A3G protein content) of 36.5%.

(Values after patent publication US20150111836A1, “CELLULAR APOBEC3 PROTEINS AND MODULATORS THEREOF FOR REGULATING DNA REPAIR PROCESSES AND TREATING PROLIFERATIVE DISEASES” (priority 2012, published 2015).)
